We go through one molecule from article PMC8487046.

The experiment concerns the target acetylated BSA (AcBSA) (bovine (from the name BSA)) (UniProt P02769). In words: SPR; AcBSA immobilized (900 RU, CM5, amine coupling; BSA as reference surface), serially diluted SREC-II(44-442) or SR-F1(20-421) injected; TBS-Ca-P; 20 µL/min; 25 °C; global fit, 1:1 Langmuir model; apparent KD.

B1: SR‐F1(20‐421), SR‐F1 ectodomain (domain or fragment)
chain: SELDPKGQHVCVASSPSAELQCCAGWRQKDQECTIPICEGPDACQKDEVCVKPGLCRCKPGFFGAHCSSRCPGQYWGPDCRESCPCHPHGQCEPATGACQCQADRWGARCEFPCACGPHGRCDPATGVCHCEPGWWSSTCRRPCQCNTAAARCEQATGACVCKPGWWGRRCSFRCNCHGSPCEQDSGRCACRPGWWGPECQQQCECVRGRCSAASGECTCPPGFRGARCELPCPAGSHGVQCAHSCGRCKHNEPCSPDTGSCESCEPGWNGTQCQQPCLPGTFGESCEQQCPHCRHGEACEPDTGHCQRCDPGWLGPRCEDPCPTGTFGEDCGSTCPTCVQGSCDTVTGDCVCSAGYWGPSCNASCPAGFHGNNCSVPCECPEGLCHPVSGSCQPGSGSRDT
What is called koff is the first-order rate constant of dissociation. In general, kon refers to the rate constant with which the complex forms. For B1, the Kd worked out at 790 nM, the koff was determined as 0.0015 s⁻¹ and the kon came out at 2000 M⁻¹ s⁻¹.
